According to paper PMC4598761, “Co-Expression of NEU2 and GBA3 Causes a Drastic Reduction in Cytosolic Sialyl Free N-glycans in Human MKN45 Stomach Cancer Cells—Evidence for the Physical Interaction of NEU2 and GBA3” (Biomolecules, 2015):

Target: T1, His-GBA3-HA (recombinant epitope-tagged cytosolic β-glycosidase GBA3) (human, UniProt Q9H227 1-469)
T1 construct: GBA3, cytosolic β-glycosidase, human; Construct pDEST17-His-GBA3-HA; also called β-galactosidase/β-glucosidase; source: E. coli BL21(AI), purified (Ni-Sepharose 6 Fast Flow); not shown: His6, N-terminal, kept; HA, C-terminal, kept
T1 sequence (looked up): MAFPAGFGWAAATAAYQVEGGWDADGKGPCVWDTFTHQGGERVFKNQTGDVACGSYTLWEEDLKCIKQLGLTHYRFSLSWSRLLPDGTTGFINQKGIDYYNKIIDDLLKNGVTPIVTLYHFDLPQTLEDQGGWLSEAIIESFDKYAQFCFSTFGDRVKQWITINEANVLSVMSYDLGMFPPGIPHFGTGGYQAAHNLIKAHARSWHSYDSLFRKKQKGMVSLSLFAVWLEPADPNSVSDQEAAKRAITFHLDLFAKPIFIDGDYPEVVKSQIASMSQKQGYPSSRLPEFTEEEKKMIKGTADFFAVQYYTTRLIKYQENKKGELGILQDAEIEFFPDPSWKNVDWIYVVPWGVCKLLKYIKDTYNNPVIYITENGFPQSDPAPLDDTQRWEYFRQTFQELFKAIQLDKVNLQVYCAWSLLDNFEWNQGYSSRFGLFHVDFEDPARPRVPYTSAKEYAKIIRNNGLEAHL
Assay: pull-down; purified recombinant proteins mixed overnight at 4 °C (1.5 mg/mL each), precipitated with 20 μL Ni-Sepharose 6 Fast Flow for 1 h at 4 °C (His-tagged protein held), washed three times with PBS, western blotting
Conditions: both partners purified

- binding result: binds
B1: GST-NEU2 (recombinant cytosolic sialidase NEU2) (enzyme, human, UniProt Q9Y3R4 1-380, looked up)
chain: MASLPVLQKESVFQSGAHAYRIPALLYLPGQQSLLAFAEQRASKKDEHAELIVLRRGDYDAPTHQVQWQAQEVVAQARLDGHRSMNPCPLYDAQTGTLFLFFIAIPGQVTEQQQLQTRANVTRLCQVTSTDHGRTWSSPRDLTDAAIGPAYREWSTFAVGPGHCLQLHDRARSLVVPAYAYRKLHPIQRPIPSAFCFLSHDHGRTWARGHFVAQDTLECQVAEVETGEQRVVTLNARSHLRARVQAQSTNDGLDFQESQLVKKLVEPPPQGCQGSVISFPSPRSGPGSPAQWLLYTHPTHSWQRADLGAYLNPRPPAPEAWSEPVLLAKGSCAYSDLQSMGTGPDGSPLFGCLYEANDYEEIVFLMFTLKQAFPAEYLPQ
notes: NEU2, cytosolic sialidase; source: E. coli BL21(DE3), purified (Glutathione Sepharose 4B)
